Assay results published in the nanobody polyreactivity screen of Harvey et al. (2022).

Assay: yeast display, Sf9 membrane polyspecificity reagent, FACS + sequencing; frameworks hold sequencing errors
In short: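 Polyreactivity labels are assigned by the sorting gate from which each nanobody was recovered. The gates were low and high (top ~1%), set on anti-HA fluorescence for expression and streptavidin fluorescence for reagent binding. Before sorting, galactose-induced (36–48 hours) yeast display cells were stained for 1 hour at 4 °C with 10% biotinylated, detergent-solubilized Sf9 membrane reagent.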

| Sequence | polyreactivity (PSR sort gate) |
| --- | --- |
| QVQLVESGGGLVHAGGSLSLSCAASGPIFGSYGMGWYRQAPGKERELVAAISYSGGRTFYADSVKGRFTISRDNAKNNVYLQMNSLKPEDTAVYYCNKRYIPSYMSHLDYWGQGTQVTVSS | high polyreactivity |
| QVQLVESGGGLVQEGGSLRLSCAGSGRTFTFNVMGWYRQAPGKEREFVAAITGTDGSTYYADSVKGRFTISRDNAKNTVYLQMNSLKPEDTAVFYCAARYDWGYVDPGDYWGQGTQVTVSS | high polyreactivity |
| QVQLVESGGGLVQAGGSLRLSCSASGRTFYSYAMGWYRQPRGKERELVATIRRGGRTNYADSVKGRFTISRDNAKNTVYLLMNSLKPEDTAVYYCAAEDYRSLVTSTYDYWGQGTQVAVSS | low polyreactivity |
| QVQLVESGGGLVQAGGSLRLSCAASGRIFTYYAMGWYRQAPGKERELVAAITSGGGSTSYADSVKGRFTISRDNAKNTVYLQMNSLKPEDTAVYYCATRRPFYGHNTYYWYNYWGQGTQVTVSS | high polyreactivity |
| QVQLVESGGGLVQAGGSLRLSCAASGRIFRANTMGWYRQAPGKERELVAVITASGGSTYYADSVKGRFTISRDNAKNTVYLQMNSLKPEDTAVYYCNRVPRTRLSGHDYWGQGTQVTVSS | high polyreactivity |
| QVQLVESGGGLVQAGGSLRLSCAASGIISPFYAMGWYRPAPGNERELVADISTGGTTTYADSVKGRFTISRDNAKNTVYLKMNSLKPEDTAVYYCNAEVSLTYYWIVWASYDYWGQGTQVTVSS | low polyreactivity |
| QVQLVESGGGLVQEGGSLRLSCAASRRTFRLYVMGWYSQAPGKERELVAAITWRGRTTYYAHSVKGRFTISRDNAKNTVYLQMNSLKPEDTAVYYCATTRYPRSYQEFGYWGQGTQGTVSS | high polyreactivity |
| QVQLVESGGGLVQAGGSLRLSCGASGRTFFWYDMGWYRQAPGKERELVAAISSSTRTKYADSVKGRFTISRDNAKNTVYLQMNSLKPEDSAVSYCAATSDYYHYWYYSSVRRFDYWGQGTQVTVSS | high polyreactivity |
| QVQLVESGGGLVQSGGSLRLSCAASGSTFVSNAMGWYRQAPGKERELVAAINGSGGITYYADSVKGRFTISRDNAKNTVYLQMNSLKPEDTAVYYCAAEYDGPSTWVDYYYHYGYWGQGTQVTVSS | low polyreactivity |
| QVQLVESGGGLVQAGGSLRLSCAASGSIFGKNAMGWYRQAPGKEREFVAAITNTGGDTYYADSVKGRFTISRDNAKNNVYLQMNSLKPEDTAVYYCNARKRKTSLYKFNYWGQGTQVTVSS | high polyreactivity |
| QVQLVESGGGLVQAGGSLRLCCAASGFILLDYAKGWYRQAPGNERELVAAISWSGARTYYADSVKRRFTISRDNAKNTVYLQMNSLKPEDTAVYYCATRYRWTPYDYWGQGTQVTVSS | low polyreactivity |
| QVQLVESGGRLVQAGGSLRLSCAASGRIFVVNAMGWYRQAPGKEREFVAAITDNTGSTYYADSVKGRFTISRDNAKNTGYLQMNSLNPEDTAVYYCAAYGYSKDLWNFYYWGQGTQVTVSS | low polyreactivity |
| QVQLVESGGGLVQAGGSLRLSCAASGITFRTNTMGWYRQAPGKERELVAAISRGGTSTYYADSVKGRFTISRDNAKNTVYLQMNSLKPEDTAVYYCAADTRFYSGRGTVSGDYWGQGTQVTVSS | low polyreactivity |
| QVQLVESGGGLVQAGGSLRLSCAASGFIFWTYAMGWYRQAPGKERELVAAISSGGTITKYADSVKGRFTISRDNATNTVYLQMNSLKPEDTAVYYCNARENAVSLRDYWGQGTQVTVSS | high polyreactivity |
| QVQLVESGGGLVQAGGSLRLSCAASGFTFGNYAMYWVRQAPGKERELVAAINYSGGSTYYADSVKGRFTISRDNAKNTVYLQMNSLKPEDTAVYYCAADTYPASYDYWGQGTQVTVSS | high polyreactivity |
| QVQLVESGGGLVQAGGSLRLSCAASGNTFRRNVMGWYRQAPGKERELVAAINRGGSTTYADSVKGRFTISRDNAKNTVFLQMNSLKPEDTAVYYCNAEKRGQSYRFDYWGQGTQVTVSS | high polyreactivity |
| QVQLVESGGGLVQAGGSLRLSCAASGFIFARYAMGWYRQAPGKVRELVARITTGDSTYYADSVKGRFTISRDNAKNTVYLQMNSLKPEDTAVYYCAADDNVSVVGLYYWGQGTQVTVSS | low polyreactivity |
| QVQLVESGGGLVEAGGSLRLSCAASGRTFGTYPMGWYRQAPGKERELVAAISSRGGTTYYADSVKGRFTISRDNAKNTVYLQMNSLKPEDTEVYYCARASWSITTVLSTMDYWGQGTQVTVSS | high polyreactivity |
| QVQLVESGGGLVQAGGGLRLSCAASGNTFRYYAMGWYIQAPGKERELVATITSGGRTYYADSVKGRFTISRDNAKNTVYLQMNSLKPEDTAVYYCNADYFQDRLDYWGQGTQVTVSS | low polyreactivity |
| QQLQESGGGLVQAGGSLRLSCAASGSISGSVLMGWYRQAPGKEREFVASISLGGNTNYADSVKGRFTISRENAKNTVYLQMNCLKPEVAAVYYCAAYISLFETHPYWGQGTQVTVSS | high polyreactivity |
| QVQLVESGGGLVQAGGSLRLSCAASGIIFPNYAMGWYRQAPGKERELVAAITTSGTSTYYADSVKGRFTISRDNAKNTVYLQMNSLKPEDTAVYYCAARPTGHWGGRYYYWGQGTQVTVSS | high polyreactivity |
| QVQLVESGGGLVQAGGSLRLSCAASGRTVSFYDMGWYRQAPGKERELVAAINSGSSTYYADSVKGRCTISRDNANTTVYLQMNSLKPEDTAVYYCADEPYFWWQNEYWGQGTQVTVSS | high polyreactivity |

| Sequence | polyreactivity (PSR sort gate) |
| --- | --- |
| QVQLVESGGGLVQAGGSLRLSCAASGSTFDIYVMGWYRQAPGKERELVAAISRVGNTSYADSVKGRFTISRDNAKNTVYLQMNRLNPEDTAVYYCAADRADFFVIRTIDPYDYWGQGTQVTVSS | low polyreactivity |
| QVQLQESGGGLVQAGGSLCLSCAASGTNFFDGHMGWYRQAPGKEREFVAAINPGGSAYYADSLKGRLPLAAITHTVYLQMNSLKPEDTAVYYCAAILFDVYGYYYWGQGTHVTVSS | low polyreactivity |
| QVQLGESGGGLVQAGGSLRLRCAASGYILWNAMGWYRQAPGKERELVAAIRFRGGSTSYADSVKGRFTISRDNAKNTVYLQMNSLKPEDTAVYYCNARWWVIRPYQRHDYWGQGTQVTVSS | low polyreactivity |
| QVQLVESGGGLVQAGGSLRLSCAASGSIFNYYAMGWYRQAPGKERELVAAITTSGGRTYYADSVKGRFTISRDNAKNTVYLQMNSLKPEDTAVYYCAARGYGRRAYVYRYDYWGQGTQVTVSS | high polyreactivity |
| QVQLVESGGGLVHAGGSLRLSCAASGSTFYQNGMGWYRQAHGQERELVAALTGDGGSTYYADSVKGRFTISRDNAKNTVSLHMNSLKPEDTAVYYCAADWTVITDSQFNSGYDYWGQGTQVTVSS | low polyreactivity |
| QVQHVESGGGLVQAGGSLRLSCAASGSTFYGNAMGWYRQAPGKEREFVASINSRGGITYYADSVKGRFTISRDNAKNTVYLQMNSLKPEDTAVYYCNTRVLSFYHYPYDYWGQGTQVTVSS | high polyreactivity |
| QVQLVESAGGLVQAGGILRLSCAASGFTFYFYAMGWYRQSPGKERELVAAISRSGSRTYYADSVKGRFTISRDNAKNTVYLQMNSLKPEDTAVYYCARVRPRGLYFVLHYDYWGQGTQVTVSS | high polyreactivity |
| QVQLVESGGGLVQAGGSLRLSCAASGFIFGWNAMGWYREAPGKERELVAALTRTGSTYYADSVKGRFTISRDNAKNTVYLQMNSLKPEDTAVYYCAASYGSRSTRTEGYWGQGTQVTVSS | low polyreactivity |
| QVQLVESGGGLVQAGGSLRLSCASSGRIFGSYAMGWYRQAPGKERELVAGIRSVGSTNYADSVKGRFTISRDNAKNTVFLQINSLKPEDTAVYYCAARLWHLSYAGQGGDYWGQVTQVTVSS | low polyreactivity |
| QVQLVESGGGLVQAGGSLRLSCAASGITFYRYAMGWYRQSPGKETQLVAAIRRAGSTYYADSVKGRFTISRDNAKNTVYLQMNSLKPEDTAVYYCAAPYRLEPLSTHGSWGQGTQVTVSS | high polyreactivity |
| QVQLVESGRGLVQAGGSLRLSCAASGSTFIPYVMGWYRKAPGKEREFVAAIRWSGGRTRYADSVKGRFTLSRDNAKNTVYLQMNSLKPEDTAVYYCAAYRLSKPFYKYDYWGQGTQVTVSS | high polyreactivity |
| QVQLVESGGGLVQAGGSHRLSCAASGRTFLTNAMGWYRQAPGKERELVAAIRWSGTSTYYADSVKGRFTISRDNAKNTVYLQMNSLKPEDTAVYYCAARKVYGSKYGYWGQGTQVTVSS | high polyreactivity |
| QVQLVESGGGLVQAGGSLRLSCAASGSTFNHYAMGWYRQAPGKERELVAAITKSGGSTYADSVKGRFTISRDNAKNTVYIQMNSLKPEDTAVYYCAAGRRKYGTKGRGDYWGQGTQVTVSS | low polyreactivity |
| QVQLVESGGGLVQAGGSLRLSCAASGSTFVAYAKGWYRQAPGKETEWDASISGSGGTTNYADSVKGRFTISRDNAKNTVYLQMNSLKPEDTAVYYCARRYYSVKSRYALNSWGQGTQVTVSS | high polyreactivity |
| QVQLVESGGGLVQAGGSLRLSCAASGSTFGSNAMGWYRQAPGKERELVAAIRWSGGSTYYADSVKGRFTISRDNAKNTVYLQMNSLKPEDTAVYYFAGYYFQYNRRFNYWGQGTQVTVSS | high polyreactivity |
| QVQLVESGGGLVQAGGSLRLSCAASGIIFSTYAMGWYRQAPGKERELVAAITSTGSTNYADSVKGRFTISRDNAKNTVYLQMNSLKPEDTAVYYCAARYAGPSPTDTGHDYWGQGTQVTVSS | low polyreactivity |
| QVQLVESGGGLVQAGGSLRLSCAASGFTIRRYAMGWYRQAPGKERALVAAITTGGSTYYADSVKGRFTISRDNAKNTVYLQMYSLKPEDTAVYYCATDTYPYPLYYSPGAYGYWGQGTQVTVSS | high polyreactivity |
| QVQLGESGGGIVQAGGSLRLSCAASGFIIRYNAMGWYRQAPGKERQFVAAISWGGGRTYYADSVKGRFTISRDNAKNTVYLQMNSLKPEDTAVYFCAAVSPHNRYGYKYDYWGQGTQVTVSS | high polyreactivity |
| QVQLVESGGGLVQAGGSLRLSWAASGFGWYAMGWYRQAPGKEREFVAAISRGGGSTYYADSVKGRFTISRDNAKNTVYLQMNSLKPEDTAVYYCAAVYYRRISQGDTQTYYQYNYWGQGTQVTVSS | high polyreactivity |
| QVQLVESGGGLVQAGGSLRLSCAASGLTFTTYAMGWYRQAPGKERELVAAISRRGSRTYYADSVKGRFTISRDNAKNTVYLQMNILKPEDTEVYYCNAMTGSFKTYSFDYWGHGTQVTVSS | high polyreactivity |
| QVQLVESGGGLVQAGGSLRLSCAASGITFVFYAMGWYRQAPGKERELVAAISTGGSTNYADTVKGRFTISRDNAKNTVYFQMNSLKPEDTAVYYCAAQYFISISKYDYWGQGTQVTVSS | low polyreactivity |
